The values below come from patent US20240141059A1 (Bristol-Myers Squibb, published 2024).

Usually Kd stands for the equilibrium constant for the complex coming apart. A lower Kd goes with higher affinity. Usually koff stands for the rate constant with which the complex falls apart. A high value points to fast dissociation. In general, kon refers to the second-order rate constant of association.

Bounds are passed on as bounds.

In one test the target is T1, human GITR on cells (human, UniProt Q9Y5U5 26-241).
T1 sequence (looked up): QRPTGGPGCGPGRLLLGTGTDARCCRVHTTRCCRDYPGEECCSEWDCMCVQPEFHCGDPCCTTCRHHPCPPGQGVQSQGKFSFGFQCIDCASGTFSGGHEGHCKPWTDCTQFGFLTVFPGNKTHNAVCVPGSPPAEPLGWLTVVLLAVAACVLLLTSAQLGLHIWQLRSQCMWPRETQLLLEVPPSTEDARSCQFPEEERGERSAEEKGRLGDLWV
Briefly: cell-based or functional assay.

In another test the target is T2, hCD16b-NA2 (human, UniProt O75015 17-200, limits assumed).
T2 construct: also called FcgRIIIb-NA2
T2 sequence (O75015 17-200 N65S limits assumed): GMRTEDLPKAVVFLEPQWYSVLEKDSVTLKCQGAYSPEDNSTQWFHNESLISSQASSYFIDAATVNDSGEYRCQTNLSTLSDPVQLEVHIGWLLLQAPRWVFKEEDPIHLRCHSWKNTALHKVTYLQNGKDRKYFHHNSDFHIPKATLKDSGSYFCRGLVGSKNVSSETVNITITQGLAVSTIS
The test can be described thus: SPR, FcgR analyte on protein A captured dAb-Fc. A general note: Surface plasmon resonance follows binding to a sensor surface in real time, without labels.

The target of the next test is T3, hCD32a-R131 (human, UniProt P12318 34-217).
T3 construct: also called FcgRIIa-R131
T3 sequence (looked up): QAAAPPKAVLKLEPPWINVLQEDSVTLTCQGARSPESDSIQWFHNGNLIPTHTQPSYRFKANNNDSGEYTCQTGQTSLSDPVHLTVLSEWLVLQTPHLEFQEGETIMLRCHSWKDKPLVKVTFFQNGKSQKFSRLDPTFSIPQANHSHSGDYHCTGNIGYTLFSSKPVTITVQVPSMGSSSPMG
Briefly: SPR, FcgR analyte on protein A captured dAb-Fc.

A further test concerns the target T4, hCD32a-H131 (human, UniProt P12318 34-217).
T4 construct: also called FcgRIIa-H131
T4 sequence (looked up): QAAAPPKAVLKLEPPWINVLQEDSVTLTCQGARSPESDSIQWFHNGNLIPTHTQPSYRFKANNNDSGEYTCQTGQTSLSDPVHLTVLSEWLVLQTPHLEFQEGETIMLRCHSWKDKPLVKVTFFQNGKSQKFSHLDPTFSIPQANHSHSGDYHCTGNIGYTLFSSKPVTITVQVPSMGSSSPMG
Briefly: SPR, FcgR analyte on protein A captured dAb-Fc.

The next test concerns the target T5, hCD16a-V158 (human, UniProt P08637 17-208, limits assumed).
T5 construct: also called FcgRIIIa-V158
The test can be described thus: SPR, FcgR analyte on protein A captured dAb-Fc.

The target of another test is T6, hCD32b (human, UniProt P31994 43-217).
T6 construct: also called FcgRIIb
T6 sequence (looked up): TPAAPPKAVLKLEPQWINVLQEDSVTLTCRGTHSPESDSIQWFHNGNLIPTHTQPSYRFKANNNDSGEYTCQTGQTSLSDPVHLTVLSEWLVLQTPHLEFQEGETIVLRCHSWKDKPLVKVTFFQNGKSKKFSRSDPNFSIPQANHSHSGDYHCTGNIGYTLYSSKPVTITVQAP
The test can be described thus: SPR, FcgR analyte on protein A captured dAb-Fc.

In the next test the target is T7, hCD40-Fc (human, UniProt P25942 21-193).
T7 construct: Immobilized on the sensor chip; not shown: Fc part of hCD40-Fc not described
T7 sequence (P25942 21-193): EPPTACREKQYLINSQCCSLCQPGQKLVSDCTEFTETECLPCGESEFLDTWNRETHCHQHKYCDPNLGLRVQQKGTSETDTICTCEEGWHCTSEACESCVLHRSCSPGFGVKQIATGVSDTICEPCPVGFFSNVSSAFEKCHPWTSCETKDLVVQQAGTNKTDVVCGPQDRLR
Briefly: SPR, hCD40-Fc immobilized, dAb-Fc analyte, avidity.

The target of test [1] is T8, purified human-CD40 monomer (human, UniProt P25942 21-193, limits assumed).
T8 construct: Soluble analyte; also called hCD40monomer
T8 sequence (P25942 21-193 limits assumed): as the sequence (P25942 21-193) above
The test can be described thus: SPR, dAb-Fc on protein A, hCD40monomer analyte; second set.

T5 sequence (P08637 17-208 F176V limits assumed): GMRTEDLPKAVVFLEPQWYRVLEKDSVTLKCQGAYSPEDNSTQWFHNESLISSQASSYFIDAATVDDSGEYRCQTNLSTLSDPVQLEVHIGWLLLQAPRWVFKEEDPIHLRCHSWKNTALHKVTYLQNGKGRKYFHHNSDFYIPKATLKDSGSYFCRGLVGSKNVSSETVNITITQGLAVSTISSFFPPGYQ

B1: anti-GITR-IgG2 (antibody)
heavy: QVQLVESGGGVVQPGRSLRLSCAASGFTFSSYGMHWVRQAPGKGLEWVAVIWYEGSNKYYADSVKGRFTISRDNSKNTLYLQMNSLRAEDTAVYYCARGGSMVRGDYYYGMDVWGQGTTVTVSSASTKGPSVFPLAPCSRSTSESTAALGCLVKDYFPEPVTVSWNSGALTSGVHTFPAVLQSSGLYSLSSVVTVPSSNFGTQTYTCNVDHKPSNTKVDKTVERKCCVECPPCPAPPVAGPSVFLFPPKPKDTLMISRTPEVTCVVVDVSHEDPEVQFNWYVDGVEVHNAKTKPREEQFNSTFRVVSVLTVVHQDWLNGKEYKCKVSNKGLPAPIEKTISKTKGQPREPQVYTLPPSREEMTKNQVSLTCLVKGFYPSDIAVEWESNGQPENNYKTTPPMLDSDGSFFLYSKLTVDKSRWQQGNVFSCSVMHEALHNHYTQKSLSLSPGK
light: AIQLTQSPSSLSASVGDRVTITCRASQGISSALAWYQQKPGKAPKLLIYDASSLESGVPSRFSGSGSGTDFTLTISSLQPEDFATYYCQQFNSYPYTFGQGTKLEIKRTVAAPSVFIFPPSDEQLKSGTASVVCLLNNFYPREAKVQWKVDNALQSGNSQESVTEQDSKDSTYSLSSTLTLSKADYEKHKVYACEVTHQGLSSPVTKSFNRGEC
As for B1, the “NFKB signaling EC50” value with human GITR on cells was about 0.01 µM.

B2: 3h56-269-IgG1.1f (Fc fusion)
chain: EVQLLESGGGLVQPGGSLRLSCAASGFTFRDYEMWWVRQAPGKGLERVSAINPQGTRTYYADSVKGRFTISRDNSKNTLYLQMNSLRAEDTAVYYCAKLPFRFSDRGQGTLVTVSSASTEPKSCDKTHTCPPCPAPEAEGAPSVFLFPPKPKDTLMISRTPEVTCVVVDVSHEDPEVKFNWYVDGVEVHNAKTKPREEQYNSTYRVVSVLTVLHQDWLNGKEYKCKVSNKALPSSIEKTISKAKGQPREPQVYTLPPSREEMTKNQVSLTCLVKGFYPSDIAVEWESNGQPENNYKTTPPVLDSDGSFFLYSKLTVDKSRWQQGNVFSCSVMHEALHNHYTQKSLSLSPGK
For B2, the Kd with hCD16b-NA2, with hCD32a-R131, in the test with hCD32a-H131, with hCD16a-V158 and with hCD32b was over 5 µM throughout.

B3: 3h56-269-IgG1.3f (Fc fusion)
chain: EVQLLESGGGLVQPGGSLRLSCAASGFTFRDYEMWWVRQAPGKGLERVSAINPQGTRTYYADSVKGRFTISRDNSKNTLYLQMNSLRAEDTAVYYCAKLPFRFSDRGQGTLVTVSSASTEPKSCDKTHTCPPCPAPEAEGAPSVFLFPPKPKDTLMISRTPEVTCVVVDVSHEDPEVKFNWYVDGVEVHNAKTKPREEQYNSTYRVVSVLTVLHQDWLNGKEYKCKVSNKALPAPIEKTISKAKGQPREPQVYTLPPSREEMTKNQVSLTCLVKGFYPSDIAVEWESNGQPENNYKTTPPVLDSDGSFFLYSKLTVDKSRWQQGNVFSCSVMHEALHNHYTQKSLSLSPGK
notes: dAb-Fc fusion protein
On to B3, for which, in the test with hCD40-Fc, the KDapparent is under 1 nM. In test [1], the Kd stood at 0.0098 µM, the koff turned out to be 0.00011 s⁻¹ and the kon was determined as 11000 M⁻¹ s⁻¹.

B4: 3h56-269-IgG1.1f (Fc fusion)
chain: EVQLLESGGGLVQPGGSLRLSCAASGFTFRDYEMWWVRQAPGKGLERVSAINPQGTRTYYADSVKGRFTISRDNSKNTLYLQMNSLRAEDTAVYYCAKLPFRFSDRGQGTLVTVSSASTEPKSCDKTHTCPPCPAPEAEGAPSVFLFPPKPKDTLMISRTPEVTCVVVDVSHEDPEVKFNWYVDGVEVHNAKTKPREEQYNSTYRVVSVLTVLHQDWLNGKEYKCKVSNKALPSSIEKTISKAKGQPREPQVYTLPPSREEMTKNQVSLTCLVKGFYPSDIAVEWESNGQPENNYKTTPPVLDSDGSFFLYSKLTVDKSRWQQGNVFSCSVMHEALHNHYTQKSLSLSPGK
notes: dAb-Fc fusion protein
B4: the KDapparent in the test with hCD40-Fc was under 1 nM.
